From publication PMC4136698
Like-named read-outs stand apart in the source and are kept apart here.

How the values were obtained:
Test in all cases: pull-down
[1] = target: SH2 affinity peptide (EPQpYEEIPIYL)
[2] = target: SH2 affinity peptide (EPQpYEEIPIYL); remark: listed apart in the source
[3] = target: SNAP tag–polyproline peptide fusion (…)

Substance	percent retained relative to Hck–1 [1] [%]	percent retained relative to Hck–1 [2] [%]	percent of kinase retained by the immobilized SH3 domain ligand [3] [%]	percent of total kinase retained on beads [3] [%]
Hck (residues 84–531) (enzyme)	17	2	–	–
Hck^Y527F (enzyme)	–	–	38	2
